# Assay: yeast display, Sf9 membrane polyspecificity reagent, FACS + sequencing; frameworks hold sequencing errors
# Summary of the method: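 Genes from sorted yeast were amplified by colony PCR, read by MiSeq 2 × 250 sequencing and filtered on CDR length. These cells carried a synthetic nanobody library in Saccharomyces cerevisiae BJ5465 and were sorted by FACS into low and high (top ~1%) gates on anti-HA and streptavidin fluorescence. Polyreactivity is labelled according to the gate of origin.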
row,Sequence,polyreactivity (PSR sort gate)
1,QVQLVESGGGLVQAGGSLRLSCAASGRIFYDYTMGWYRQAPVKERELVATITSGGNTNYADSVKGRFTISRDNAKNTVYLQMNSLKPEDTEVYYCNADFGYWWDGSRYDYWGQGTQVTVSA,low polyreactivity
2,QVQLVESGGGLVQAGGSLRLSCAASGRIFYFNAMGWYRQAPGKERELVAAMSWTGGSTYYADSVKGRFTISRDTAKNTVYLQMNSLKPEDTAVYYCAADRALSISLYPIASFDYWGQGTQVTVSS,low polyreactivity
3,QVQLVESGGGLVQAGGSLRLSCAASGRIFYFNARGWYRQAPGKERELVAAITSGGSTYYADSVKGRFTISRDNAKNTVYLQMNSLKPEDTAVYYCATDWPHWRYVYWFDYWGQGTQVTVSS,low polyreactivity
4,QVQLVESGGGLVQAGGSLRLSCAASGRIFYFYAMGWYRQAPGKEMELVAAISTSGGSTYYADSVKGRFTISRDNAKNTVYLQMNSLKPEDTAVYYCNADGYQSRWYYYNYDYWGQGTQVTVSS,low polyreactivity
5,QVQLVESGGGLVQAGGSLRLSCAASGRIFYFYAMGWYRQAPGKERELVAAISRRGGTTNYADSVKGRFTISRDNAKNTVYLQMNSLKPEDTAVYYCAADYQSVGGAEYDYWGQGTQVTVSS,high polyreactivity
6,QVQLVESGGGLVQAGGSLRLSCAASGRIFYFYPMGWYRQAPGKERELVAAISTSGGSTYYADSVKGRFTISRDNAKNTVYLQMNSLKPEDTAVYYCAARFRYYVSEYDYWGQGTQVTVSS,low polyreactivity
7,QVQLVESGGGLVQAGGSLRLSCAASGRIFYGKAMGWYRQAPGKERELVAGITTSGGGTYYADSVKGRFTISRDNAKNTVYLKMNSLKPEDTAVYYCAAKYRRYRDIQDGGYWGQGTQVTVSS,low polyreactivity
8,QVQLVESGGGLVQAGGSLRLSCAASGRIFYGNAMGWYRQAPGKERELVAAITRGVSTYYADSVKGRFTISRDNAKNTVYLQMNSLKPEDTAVYYCAKDRRVRMDSWGQGTQVTVSS,low polyreactivity
9,QVQLVESGGGLVQAGGSLRLSCAASGRIFYGNTMGWSRQAPGKERELVAAISLRGGSTYYADSVKGRFTISRDTAKNTVSLQMNSLKPEDTAVYYCAATGGRGPRRYYWGQGTQVTVSS,high polyreactivity
10,QVQLVESGGGLVQAGGSLRLSCAASGRIFYGNTMGWYRQAPGKERELVAAISRSGGSTYYADSVKGRFTISRDNAKNTVYLQMNSLKPEDTAVYYCNARYYRKYDYWGQGTQVTVSS,high polyreactivity
11,QVQLVESGGGLVQAGGSLRLSCAASGRIFYGYAMGWYRQAPGKDRELVATISRSGARTHYADSVKGRFTISRDNAKNTVYLQMNSLKQEDTAVYYCAADVYLSRYEKYGYWGQGTQVTVSS,high polyreactivity
12,QVQLVESGGGLVQAGGSLRLSCAASGRIFYGYAMGWYRQAPGKEREFVAAITVSAGSTYYADSVKGRFTISRDNAKNTVYLQMNSLKPEDTAVYYCAAKRYVYPSYRFDYWGKGTQVTVSS,low polyreactivity
13,QVQLVESGGGLVQAGGSLRLSCAASGRIFYGYAMGWYRQAPGKERELVAAITRGGSTYYADSVKGRFTISRDNAKNTVYLQMNSLKPEDTAVYYCAAVIYSYRSYREYGYWGQGTQVTVSS,high polyreactivity
14,QVQLVESGGGLVQAGGSLRLSCAASGRIFYGYAMGWYRQAPGKERELVAAITSRGTSTYYADSVKGRFTISRDTAKNTVYLQMNSLKPEDTAVYYCNAAYGRSFYSKVFSYNYWGQGTQVTVSS,high polyreactivity
15,QVQLVESGGGLVQAGGSLRLSCAASGRIFYGYAMGWYRQAPGKERELVASISRRGSSTYYADSVKGRFTISRDNAKNTVYLQMNSLKPEDTAVYYCAKYTVQYAISHYDYWGQGTQVTVSS,high polyreactivity
16,QVQLVESGGGLVQAGGSLRLSCAASGRIFYGYAMGWYRQAPGKERELVASITVSRTSTYYADSVKGRFTISRDNAKNTVYLQMNSLKPEDTAVYYCAVGDGFEYDWGQGTQVTVSS,low polyreactivity
17,QVQLVESGGGLVQAGGSLRLSCAASGRIFYGYTMGWYRPAPGKERELVAAISRYGGSTYYADSVKGRFTISRDNAKKTVYLQMNSLKPEDTAVYYCNAVYSRGYVIKPYDYWGQGTQVTVSS,high polyreactivity
18,QVQLVESGGGLVQAGGSLRLSCAASGRIFYGYTMGWYRQAPGKERELVAAITWSGVSTYADSVKGRFTISRDNAKNTVYLQMNSLKPEDTAVYYCNADPIYGKRWRYYYWGQGTQVTVSS,high polyreactivity
19,QVQLVESGGGLVQAGGSLRLSCAASGRIFYHNAMGWYRQAPGKERELVAVISWSGTRTYYADSVKGRFTISRDNAKNTVYLQMNSLKPEDTAVYYFNVEPYYTSYWIYPYIYTYDYWGQGTQVTVSS,high polyreactivity
20,QVQLVESGGGLVQAGGSLRLSCAASGRIFYHYAMGWYRQPPGKESELVAAITWSGDSTYYADSVKGRFTISRDNAQNTVYLQMNSLKPEDTAVSYCATSSPYGVRRYSRGSWGQGTQVTVSS,high polyreactivity
21,QVQLVESGGGLVQAGGSLRLSCAASGRIFYINAMGWYIQAPGKERELVASITGSGGRTYYADSVKGRFTISRDNAKNTVYLQMNSLKPEDTAVYYCNADLYVGYLYYLYDYWGQGTQVTVSS,low polyreactivity
22,QVQLVESGGGLVQAGGSLRLSCAASGRIFYINAMGWYRQAPGTERELVAAITEGGVSTYYADSVKGRFTSSRDNAKNTVYLQMNSLKPEDTAVYYCNTTGGPDGIVIYEYWGQGTQVTVSS,low polyreactivity

row,Sequence,polyreactivity (PSR sort gate)
1,QVQLVESGGGLVQAGGSLRLSCAASGRIFYIYAMGWFRQAPGKERELVAAITNGGSTNYADSVKGRFTISRDNAKNTVYLQMNSLKPEDTAVYYCAASVGTYAYARTVYRYDYWGQGTQVTVSS,low polyreactivity
2,QVQLVESGGGLVQAGGSLRLSCAASGRIFYIYTMGWYRPAPGKEREFVAGINWNGGSTYYADSVKGRFTISRDNAKNTVYLQMNSLKPEDTAVYYCNADQYWDRYYYWGQGTQVTVSS,low polyreactivity
3,QVQLVESGGGLVQAGGSLRLSCAASGRIFYKNVMVWYRQAPGKERELVAAISTSTGRTYYADSVKGRFTISRDNAKNTVYLEMNSLKPEDTAVYYCNAVRGHTNGVLYRYDYWGQGTQVTVSS,high polyreactivity
4,QVQLVESGGGLVQAGGSLRLSCAASGRIFYLNAMGWYRQAPGKERELVAAISGSTGSTYYADSVKGRFTISRDNAKNTVYLQMNSLKPEDTAVYYCNAGGVYDEFNYWGQGTQVTVSS,low polyreactivity
5,QVQLVESGGGLVQAGGSLRLSCAASGRIFYLYGMGWYRQAPGKERELVAGITGSGGNTYYADSVKGRFTISRDNAMNTVYLQMNSLKPEDTAVYYCIARFRARPRMGYWGQGTQVTLSS,high polyreactivity
6,QVQLVESGGGLVQAGGSLRLSCAASGRIFYLYTMGWYRQAPGKEREFSRYYADSVKGRFTISRDNAKNTVYLQMNCLKPEDTAVYSCAAADHPPVWYGYWGQGTHVTVSS,low polyreactivity
7,QVQLVESGGGLVQAGGSLRLSCAASGRIFYNNAMGWYRQAPGKERELVATISRGGSTNYADSVKGRFTISRDNAKNTVYLQMNSLKPEDTAVYYCAAVTTRSYGYEYWGQGTQVTVSS,low polyreactivity
8,QVQLVESGGGLVQAGGSLRLSCAASGRIFYNSVMGWYRQAPGKERELVAAISSSGGSTYYADSVKGRFTISRDNAKNTVYLQMNSLKPEDTAVYYCATTRRVPGEYWGQGTQVTVSS,high polyreactivity
9,QVQLVESGGGLVQAGGSLRLSCAASGRIFYNYAMGWYRQAPGKERELVAAISGSGGSTYYADSVKGRFTISRDNAKNTVYLQMNSLKPEDTAVYYCNADTVYTRTAPYDYWGQGSQVTVSS,low polyreactivity
10,QVQLVESGGGLVQAGGSLRLSCAASGRIFYNYAMGWYRQAPGKERELVASINFSGTRTYYADSVKGRFTISRDNAKNTVYLQMNSLKPEDTAVYYCAARQAHGYYYWGQGTQVTVSS,high polyreactivity
11,QVQLVESGGGLVQAGGSLRLSCAASGRIFYPNAMGWYRQAPGKERELVAAITGRGGITYYADSVKGRFTISRDNAKNTVYLQMNSLKPEDTAVYYCNAAAYYPTNYGGYLFEYWGQGTQVTVSS,low polyreactivity
12,QVQLVESGGGLVQAGGSLRLSCAASGRIFYPNAMGWYRQAPGKERELVAGISSGGSTYYADSVKGRFTISRDNAKNTVYLQMNSLKPEDTAVYYCAARVYAHTSRRFLKYDYWGQGTQVTVSS,high polyreactivity
13,QVQLVESGGGLVQAGGSLRLSCAASGRIFYPYAMGLYRQAPGKEREFVADISSAGSTYYADSVKGRFTISRDNAKNTVYLQMNSLKPEDTAVYYCAADRTSGAYYFRFLYDRDYWGQGTQVTVSS,low polyreactivity
14,QVQLVESGGGLVQAGGSLRLSCAASGRIFYPYAMGWYRPAPGKERELVAAITVRGGRTYYADSVKWRFTISRDNAKNTVYLQMNSLKPEDTAVYYCNAVIGWYIGSRTYPHGPLQYDYWGQGTQVTLSS,high polyreactivity
15,QVQLVESGGGLVQAGGSLRLSCAASGRIFYPYAMGWYRQAPGKEREFVAAISYRGTSTFYADSVKGRFTISRDNAKNTVYLQMNSLKPEDTAVYYCAARVLWYGRATAAVTPYDYWGQGTQVTVSS,high polyreactivity
16,QVQLVESGGGLVQAGGSLRLSCAASGRIFYPYAMGWYRQAPGKERELVAAIDWTAGGTYYADSVKGRFTISRDNAKNTVYLQMNSLKPEDTAVYYCAAEYYIEANGDYWGLGTQVTVSS,low polyreactivity
17,QVQLVESGGGLVQAGGSLRLSCAASGRIFYPYAMGWYRQAPGKERELVAAIRISGGSTYYADSVKGRFTISRDNAKNTVYLQMISLNPEDTAVYYCNASARLQPAYSWFYYWGQGTQVTVSS,high polyreactivity
18,QVQLVESGGGLVQAGGSLRLSCAASGRIFYPYAMGWYRQAPGKERELVAAISYSGGSTFYADSVKGRFTISRDNAKNTVYLQMNSLKPEDTAVYYCIKPGLYIYGSWGQGTQVTVSS,high polyreactivity
19,QVQLVESGGGLVQAGGSLRLSCAASGRIFYPYAMGWYRQAPGKERELVASITSGGGTYYADSVKGRFTISRDNAKNSVYLQMNSLKPEDTAVYYCAAKYYTSWIRYDYWGQGTQVTVSS,low polyreactivity
20,QVQLVESGGGLVQAGGSLRLSCAASGRIFYPYAMGWYRQPPGKERELVAAIDKGGGSTYYADSVKGRFTISRDNAKNTVYLQMNSLKPEDTAVYYCAAGWEYPYDYWGQGTQVTVSS,low polyreactivity
21,QVQLVESGGGLVQAGGSLRLSCAASGRIFYQNTMGWYRQAPGKEREFVARINWSGGSTYYADSVKGRFTISRDNAKITVYLQMNSLKPEDTAVYYWAKASQSWGRDDYYYWGQGTQVTVSS,low polyreactivity
